Data as given in the MegaScale stability set (Tsuboyama et al. 2023).

B1: HEEH_KT_rd6_3632 (parent)
chain: DAEELIELVERALKEGREIILLGVRITSEEAGKWFIEWIRRFL

Variants of: B1
Assay: folding stability dG (cDNA display proteolysis); higher = more stable
Conditions: PBS, room temperature

Compared with DAEERIELVERALKEGREIILLGVRITSEEAGKWFIEWIRRFL [L5R], DAEENIELVERALKEGREIILLGVRITSEEAGKWFIEWIRRFL [L5N] is lower in “folding stability dG” value: 2.79 kcal/mol for the first, 2.72 kcal/mol for the second.

Going from DAEEEIELVERALKEGREIILLGVRITSEEAGKWFIEWIRRFL [L5E] to DAEEWIELVERALKEGREIILLGVRITSEEAGKWFIEWIRRFL [L5W], the “folding stability dG” value rises from 2.77 kcal/mol to 3.67 kcal/mol.

Going from DAEEMIELVERALKEGREIILLGVRITSEEAGKWFIEWIRRFL [L5M] to DAEEDIELVERALKEGREIILLGVRITSEEAGKWFIEWIRRFL [L5D], the “folding stability dG” value falls from 3.56 kcal/mol to 3.02 kcal/mol.

Compared with DAEEPIELVERALKEGREIILLGVRITSEEAGKWFIEWIRRFL [L5P], DAEEYIELVERALKEGREIILLGVRITSEEAGKWFIEWIRRFL [L5Y] is higher in “folding stability dG” value: 2.82 kcal/mol for the first, 3.47 kcal/mol for the second.

DAEEKIELVERALKEGREIILLGVRITSEEAGKWFIEWIRRFL [L5K] and DAEEHIELVERALKEGREIILLGVRITSEEAGKWFIEWIRRFL [L5H] are the same in “folding stability dG” value: 2.83 kcal/mol for the first, 2.83 kcal/mol for the second.

Compared with DAEEQIELVERALKEGREIILLGVRITSEEAGKWFIEWIRRFL [L5Q], DAEEIIELVERALKEGREIILLGVRITSEEAGKWFIEWIRRFL [L5I] is higher in “folding stability dG” value: 2.83 kcal/mol for the first, 3.44 kcal/mol for the second.

First: DAEEVIELVERALKEGREIILLGVRITSEEAGKWFIEWIRRFL [L5V]
Second: DAEEAIELVERALKEGREIILLGVRITSEEAGKWFIEWIRRFL [L5A]
The “folding stability dG” value of the first is higher: 3.23 kcal/mol for the first, 2.97 kcal/mol for the second.

First: DAEEGIELVERALKEGREIILLGVRITSEEAGKWFIEWIRRFL [L5G]
Second: DAEETIELVERALKEGREIILLGVRITSEEAGKWFIEWIRRFL [L5T]
The “folding stability dG” value of the first is lower: 2.88 kcal/mol for the first, 3.08 kcal/mol for the second.

First: DAEESIELVERALKEGREIILLGVRITSEEAGKWFIEWIRRFL [L5S]
Second: DAEECIELVERALKEGREIILLGVRITSEEAGKWFIEWIRRFL [L5C]
The “folding stability dG” value of the first is lower: 2.85 kcal/mol for the first, 3.74 kcal/mol for the second.

Compared with DAEEFIELVERALKEGREIILLGVRITSEEAGKWFIEWIRRFL [L5F], DAEELIELCERALKEGREIILLGVRITSEEAGKWFIEWIRRFL [V9C] is higher in “folding stability dG” value: 3.6 kcal/mol for the first, 4.04 kcal/mol for the second.

First: DAEELIELAERALKEGREIILLGVRITSEEAGKWFIEWIRRFL [V9A]
Second: DVEELIELVERALKEGREIILLGVRITSEEAGKWFIEWIRRFL [A2V]
The “folding stability dG” value of the first is lower: 3.19 kcal/mol for the first, 4.05 kcal/mol for the second.

First: DTEELIELVERALKEGREIILLGVRITSEEAGKWFIEWIRRFL [A2T]
Second: DYEELIELVERALKEGREIILLGVRITSEEAGKWFIEWIRRFL [A2Y]
The “folding stability dG” value of the first is lower: 3.62 kcal/mol for the first, 4.2 kcal/mol for the second.

Compared with DWEELIELVERALKEGREIILLGVRITSEEAGKWFIEWIRRFL [A2W], DADELIELVERALKEGREIILLGVRITSEEAGKWFIEWIRRFL [E3D] is lower in “folding stability dG” value: 4.53 kcal/mol for the first, 3.85 kcal/mol for the second.

First: DAPELIELVERALKEGREIILLGVRITSEEAGKWFIEWIRRFL [E3P]
Second: DATELIELVERALKEGREIILLGVRITSEEAGKWFIEWIRRFL [E3T]
The “folding stability dG” value of the first is lower: 3.46 kcal/mol for the first, 3.83 kcal/mol for the second.

Compared with DASELIELVERALKEGREIILLGVRITSEEAGKWFIEWIRRFL [E3S], DALELIELVERALKEGREIILLGVRITSEEAGKWFIEWIRRFL [E3L] is higher in “folding stability dG” value: 3.74 kcal/mol for the first, 3.97 kcal/mol for the second.

Going from DARELIELVERALKEGREIILLGVRITSEEAGKWFIEWIRRFL [E3R] to DAWELIELVERALKEGREIILLGVRITSEEAGKWFIEWIRRFL [E3W], the “folding stability dG” value falls from 4.16 kcal/mol to 4.15 kcal/mol.

Going from DAQELIELVERALKEGREIILLGVRITSEEAGKWFIEWIRRFL [E3Q] to DAGELIELVERALKEGREIILLGVRITSEEAGKWFIEWIRRFL [E3G], the “folding stability dG” value falls from 3.94 kcal/mol to 3.69 kcal/mol.

First: DAFELIELVERALKEGREIILLGVRITSEEAGKWFIEWIRRFL [E3F]
Second: DAIELIELVERALKEGREIILLGVRITSEEAGKWFIEWIRRFL [E3I]
The “folding stability dG” value of the first is higher: 4.06 kcal/mol for the first, 3.85 kcal/mol for the second.

Compared with DAHELIELVERALKEGREIILLGVRITSEEAGKWFIEWIRRFL [E3H], DAKELIELVERALKEGREIILLGVRITSEEAGKWFIEWIRRFL [E3K] is lower in “folding stability dG” value: 4.02 kcal/mol for the first, 3.8 kcal/mol for the second.

First: DAVELIELVERALKEGREIILLGVRITSEEAGKWFIEWIRRFL [E3V]
Second: DANELIELVERALKEGREIILLGVRITSEEAGKWFIEWIRRFL [E3N]
The “folding stability dG” value of the first is lower: 3.78 kcal/mol for the first, 3.87 kcal/mol for the second.

Compared with DAMELIELVERALKEGREIILLGVRITSEEAGKWFIEWIRRFL [E3M], DAYELIELVERALKEGREIILLGVRITSEEAGKWFIEWIRRFL [E3Y] is higher in “folding stability dG” value: 3.73 kcal/mol for the first, 4.02 kcal/mol for the second.

Compared with DAAELIELVERALKEGREIILLGVRITSEEAGKWFIEWIRRFL [E3A], DAEELKELVERALKEGREIILLGVRITSEEAGKWFIEWIRRFL [I6K] is lower in “folding stability dG” value: 3.87 kcal/mol for the first, 3.24 kcal/mol for the second.

Compared with DAEELDELVERALKEGREIILLGVRITSEEAGKWFIEWIRRFL [I6D], DAEELEELVERALKEGREIILLGVRITSEEAGKWFIEWIRRFL [I6E] is lower in “folding stability dG” value: 3.2 kcal/mol for the first, 3.18 kcal/mol for the second.

Going from DAEELGELVERALKEGREIILLGVRITSEEAGKWFIEWIRRFL [I6G] to DAEELFELVERALKEGREIILLGVRITSEEAGKWFIEWIRRFL [I6F], the “folding stability dG” value rises from 3.18 kcal/mol to 3.48 kcal/mol.

First: DAEELSELVERALKEGREIILLGVRITSEEAGKWFIEWIRRFL [I6S]
Second: DAEELCELVERALKEGREIILLGVRITSEEAGKWFIEWIRRFL [I6C]
The “folding stability dG” value of the first is lower: 3.18 kcal/mol for the first, 3.95 kcal/mol for the second.

Compared with DAEELYELVERALKEGREIILLGVRITSEEAGKWFIEWIRRFL [I6Y], DAEELNELVERALKEGREIILLGVRITSEEAGKWFIEWIRRFL [I6N] is lower in “folding stability dG” value: 3.38 kcal/mol for the first, 3.11 kcal/mol for the second.

Going from DAEELPELVERALKEGREIILLGVRITSEEAGKWFIEWIRRFL [I6P] to DAEELWELVERALKEGREIILLGVRITSEEAGKWFIEWIRRFL [I6W], the “folding stability dG” value rises from 3.08 kcal/mol to 3.99 kcal/mol.

First: DAEELHELVERALKEGREIILLGVRITSEEAGKWFIEWIRRFL [I6H]
Second: DAEELVELVERALKEGREIILLGVRITSEEAGKWFIEWIRRFL [I6V]
The “folding stability dG” value of the first is lower: 3.29 kcal/mol for the first, 3.48 kcal/mol for the second.

Going from DAEELLELVERALKEGREIILLGVRITSEEAGKWFIEWIRRFL [I6L] to DAEELAELVERALKEGREIILLGVRITSEEAGKWFIEWIRRFL [I6A], the “folding stability dG” value falls from 3.62 kcal/mol to 3.38 kcal/mol.

For DAEELMELVERALKEGREIILLGVRITSEEAGKWFIEWIRRFL [I6M], the “folding stability dG” value was 3.3 kcal/mol.
